Drawing on US20040197853A1, this text covers In vitro Reactivity with IgE and In vitro Reactivity with IgG for one substance.

Assay [1] deals with monoclonal IgE antibody.
For assay [2], the target named is IgG antibody.

On to MTCS (enzyme), for which the In vitro Reactivity with IgE in assay [1] is under 5%. Besides, the In vitro Reactivity with IgG in assay [2] was under 5%.
